In data set [1] the test system is CT26 murine colorectal carcinoma tumor cells. Briefly: CT26 murine colorectal carcinoma model. It is filed as in vivo, mouse. Particulars: for Day 10 tumor volume: Days 0 and 3; for % tumor growth inhibition: Day 10; for # IFNγ-producing spots (tumor-reactive T cells in spleen): average of n = 4 mice. On the procedure:
CT26 murine colorectal carcinoma tumor cells (1×10^6) were subcutaneously implanted in the hind flank of female Balb/c mice. When tumors reached ˜100 mm3 (Day 8), mice were randomized. PBS vehicle control or variant CD80-Fc fusion proteins were dosed intravenously at 0.1 and 1.0 mg/kg on Days 0 and 3. Tumor volume was determined by caliper measurements obtained in 2 dimensions and calculated as width^2×length/2. Error bars are depicted as ±SEM.
IFNγ ELIspot was used to measure tumor-reactive T cells in the spleen in mice treated with CD80-Fc fusion proteins at a 1 mg/kg dose.
Cytotoxic CD8^+ T cells are responsible for killing cancer cells and the measurement of CD8^+ T cells that have infiltrated tumors commonly correlates with efficacy for immune-oncology therapies. For all in vivo studies, tumors were collected ˜1 week after the first dose and dissociated by mincing, followed by incubation in an enzymatic digestion cocktail and homogenization. The resulting cell suspension was filtered and washed, and single cells were stained with antibodies to CD45, CD8, and a viability dye to detect tumor-infiltrating lymphocytes (TILs) by flow cytometry. Data were acquired on a BD LSRFortessa flow cytometer or a Cytek Aurora spectral flow cytometer. Table 31 and FIG. 18 show the amount of tumor-infiltrating CD8+ T cells expressed as a percentage of total immune cells (CD45+). Each value is the average of n=4 mice per group. Treatment with all variant CD80-Fc fusion proteins led to increase in CD8+ TILs in various tumor models.

Data set [2] in a line: Thermal stability by Differential Scanning calorimetry (DSC). The class given is physicochemical. How it is done: There is a correlation between the thermal stability of a protein with the overall stability of the protein. Enhanced thermal stability often provides improved manufacturability and longer shelf life/stability. Thermal stability of variant CD80-Fc fusion proteins was assessed by Differential Scanning calorimetry (DSC). Variant CD80-Fc fusion proteins were analyzed using a MicroCal VP-DSC instrument. […] Tables 8-10 show the first thermal transition temperature (Tm1) of CD80-Fc fusion proteins and the enhanced thermal stability of variant CD80-Fc fusion proteins compared to CD80-WT-Fc fusion proteins.
For orientation: DSC measures the heat that a sample takes up or gives off during a temperature scan.

The subject of data set [3] is Jurkat-IL-2-Luc reporter cells. Briefly: Jurkat-IL-2-Luc and HCT116-CD64 reporter co-stimulation assay. It is filed as cell-based, human. Particulars: for EC50: Table 17, 20 ng/ml CDH3×CD3 bispecific, n=2. From the text:
A T cell co-stimulation assay was designed based on T Cell Activation Bioassay (IL-2) Kit from Promega (Product #J1631). The assay consisted of a genetically engineered Jurkat T cell line that expresses luciferase reporter driven by an IL-2 promoter. Co-engagement of T cell antigen receptor (TCR/CD3) and CD28 co-stimulatory receptor induces activation of T cells and downstream intracellular signaling pathways that in turn regulate the expression of luciferase reporter. As described above, HCT116 human colon cancer cell line was used for TCR engagement using the CDH3×CD3 bispecific and genetically engineered by lentiviral transduction to express human FCγRI.
A 96 well culture plate was seeded with HCT116 parental or HCT116-CD64 cells at 40,000 cells per well in 100 μL RPMI with 10% HI FBS and grown overnight at 37° C. in CO2 incubator. To each well, Jurkat reporter cells (100,000 per well) and 10 μL of the CDH3×CD3 bispecific (8 ng/ml final concentration) were added. 10 μL of serial dilutions of variant CD80-Fc fusion proteins with concentrations ranging from 0-1000 ng/ml (final concentrations per well) was added with appropriate controls. Assay plates were incubated for 6 hours at 37° C. in CO2 incubator for before harvesting culture supernatants and transferring to new plates. Following equilibration, 80 μL of BioGlo luminescence reagent (BioGlo Luciferase assay kit, Promega, G7940) was added into each well. Plates were incubated for 5 minutes before reading luminescence on the EnSight™ plate reader (PerkinElmer).
Jurkat is an immortalized human T cell line, and the Jurkat IL-2-reporter assay assesses the CD28-mediated signaling resulting in activation of the IL-2 promoter. The activity of CD80-Fc fusion proteins was measured using the co-culture HCT116-CD64-Jurkat IL-2 reporter assay, as described in Example 2, but using 20 ng/ml CDH3×CD3 bispecific.

Data set [4] in a line: Pharmacokinetics in huFcRn transgenic mice. The conditions noted are these: 0.1 mg/kg IV; for Cmax: average of 3 animals.
Protocol: PK of CD80-Fc fusion proteins was also assessed in transgenic mice expressing the human neonatal Fc receptor (huFcRn) a-chain transgene under the control of its natural human promoter. Female mice were dosed intravenously with CD80-Fc fusion proteins at 0.1 mg/kg, and blood was collected at the timepoints indicated on the graph. Levels of CD80-Fc in mouse plasma were measured as described above.
Data set [5] in a line: Pharmacokinetics in cynomolgus monkeys. It is filed as in vivo. The conditions noted are these: cynomolgus monkey. On the procedure:
PK of variant CD80-Fc fusion proteins was assessed in non-human primates. […] A ligand binding assay using the Gyrolab Immunoassay platform was used to quantitate CD80-Fc molecules in cynomolgus monkey serum following dose administration. CD80-Fc constructs were captured onto the Gyrolab Bioaffy CD using a biotinylated monoclonal anti-human CD80 antibody (Thermo Fisher Cat #13-0809-82). Bound CD80-Fc constructs were detected using a mouse anti-human Fc antibody (SouthernBiotech Cat #9040-01) that was labeled with Alexa Fluor 647. Sample concentrations were determined by interpolation from a calibration curve that were fit using a 5-parameter logistic regression model. The range of quantitation of the assay was 100-15000 ng/ml in 100% serum. […] AUC (Area Under the Curve); Cmax (Maximum Concentration observed); Tmax (Time of Maximum concentration observed)

For the substance “CD80-D90Q-Fc: variant CD80 ECD (D90Q) fused to human IgG1 Fc”, in data set [1] (0.1 mg/kg), the “Number of tumor regressions” value is reported as 0/10 and the “% tumor growth inhibition” value was 39.20%. The “Day 10 tumor volume” value in data set [1] (0.1 mg/kg IV) is 728.3 mm^3. Further, in data set [1] (1 mg/kg), the “Number of tumor regressions” value is given as 6/10, the “% tumor growth inhibition” value is on record as 75.31% and the “# IFNγ-producing spots (tumor-reactive T cells in spleen)” value (shortened to “# IFNγ-producing spots”) was 341.6875. Also, in data set [1] (1 mg/kg IV), the “Day 10 tumor volume” value is listed as 295.8 mm^3. The “CD8^+ T cell infiltrates (% CD45)” value in data set [1] (CT26, 1 mg/kg, n=4) was 27.4 % CD45. In addition, the “DSC Tm1” value in data set [2] (PBS) turned out to be 59.83 ± 0.08 °C.
“CD80-K89D-D90K-T28V-T57V-Fc: non-cysteine stabilized variant CD80-Fc fusion protein (K89D, D90K, T28V, T57V)” had an EC50 in data set [3] of 0.047 ± 0.004 nM. Also, the “DSC Tm1” value in data set [2] (Glu pH 4.5) came out at 65.11 ± 0.23 °C. In data set [2] (His pH 5.8), the “DSC Tm1” value turned out to be 68.57 ± 0.74 °C. In data set [2] (PBS), the “DSC Tm1” value came to 63.70 ± 0.07 °C. Moreover, the “DSC Tm1” value in data set [2] (Tris pH 7.5) was 66.94 ± 1.6 °C. In data set [4], this substance returned an AUC of 147 µg·h/mL, a CL of 14 mL/day/kg, a Vdss of 0.082 L/kg and a Cmax of 2.3 µg/mL.
Take “CD80-K89Q-D90Q-E23C-A26C-Fc: disulfide stabilized variant CD80-Fc fusion protein (K89Q, D90Q, E23C, A26C)”: in data set [1] (0.1 mg/kg), the “Number of tumor regressions” value was 5/10 and the “% tumor growth inhibition” value turned out to be 75.80%. In addition, the “Day 10 tumor volume” value in data set [1] (0.1 mg/kg IV) is 289.9 mm^3. Further, in data set [1] (1 mg/kg), the “Number of tumor regressions” value is 6/10, the “% tumor growth inhibition” value is 74.51% and the “# IFNγ-producing spots” value is 547.375. Besides, the “Day 10 tumor volume” value in data set [1] (1 mg/kg IV) is given as 305.3 mm^3. For the same substance, in data set [3], it took 0.27 ± 0.044 nM to reach a half-maximal effect (EC50). Besides, the “DSC Tm1” value in data set [2] (PBS) amounted to 67.28 ± 0.2 °C. In data set [5] (3 mpk IV), the AUC turned out to be 3680 µg·h/mL, the “AUC fold-increase over WT” value was determined as 1.48, the Cmax was 107 µg/mL and the Tmax turned out to be 4.98 min. In data set [5] (15 mpk IV), the AUC stood at 27800 µg·h/mL, the “AUC fold-increase over WT” value turned out to be 2.00, the Cmax is 627 µg/mL and the Tmax is 4.98 min. Further, in data set [5] (50 mpk IV), the AUC was found to be 72200 µg·h/mL, the “AUC fold-increase over WT” value stood at 1.95, the Cmax stood at 1790 µg/mL and the time of peak concentration (Tmax) was 4.98 min. In data set [4], the AUC stood at 182 µg·h/mL, the CL amounted to 8.6 mL/day/kg, the T1/2 is 211 h and the volume of distribution (Vdss) was found to be 0.109 L/kg. Moreover, in data set [4], the Cmax was determined as 2.2 µg/mL.
In the case of “CD80-K89Q-D90Q-Fc: variant CD80 ECD (K89Q, D90Q) fused to human IgG1 Fc”, in data set [1] (0.1 mg/kg), the “Number of tumor regressions” value is given as 1/10 and the “% tumor growth inhibition” value is reported as 28.41%. Moreover, the “Day 10 tumor volume” value in data set [1] (0.1 mg/kg IV) is 857.6 mm^3. In addition, in data set [1] (1 mg/kg), the “Number of tumor regressions” value is 5/10, the “% tumor growth inhibition” value worked out at 75.04% and the “# IFNγ-producing spots” value is given as 569.5. For the same substance, the “Day 10 tumor volume” value in data set [1] (1 mg/kg IV) is listed as 299.0 mm^3. The “enhanced co-stimulation compared to CD80-WT-Fc” value in data set [3] was “about 4 fold”. Moreover, the “DSC Tm1” value in data set [2] (PBS) turned out to be 59.67 ± 0.10 °C. Besides, in data set [5] (3 mpk IV), the AUC was found to be 1230 µg·h/mL, the “AUC fold-increase over WT” value worked out at 0.50, the Cmax amounted to 89.4 µg/mL and the Tmax came out at 4.98 min. Also, in data set [5] (15 mpk IV), the AUC worked out at 12100 µg·h/mL, the “AUC fold-increase over WT” value was determined as 0.87, the maximum concentration (Cmax) turned out to be 570 µg/mL and the Tmax is 4.98 min. Besides, in data set [5] (50 mpk IV), the AUC was found to be 27300 µg·h/mL, the “AUC fold-increase over WT” value turned out to be 0.74, the Cmax turned out to be 1420 µg/mL and the Tmax worked out at 4.98 min.
In data set [3], “CD80-WT-Fc: wild-type human CD80 extracellular domain fused to human IgG1 Fc (C220S) [reference compound]” displayed an EC50 of 0.58 ± 0.074 nM. For the same substance, the “DSC Tm1” value was 62.78 ± 0.03 °C in data set [2] (Glu pH 4.5), 63.40 ± 0.35 °C in data set [2] (His pH 5.8), 59.52 ± 0.07 °C in data set [2] (PBS) and 64.77 ± 0.14 °C in data set [2] (Tris pH 7.5). In addition, the AUC in data set [5] (3 mpk IV) was determined as 2480 µg·h/mL; in data set [5] (15 mpk IV) it was 13900 µg·h/mL; in data set [5] (50 mpk IV), 37000 µg·h/mL; in data set [4], 97 µg·h/mL. For the same substance, the Cmax worked out at 90.7 µg/mL in data set [5] (3 mpk IV), 460 µg/mL in data set [5] (15 mpk IV) and 2 µg/mL in data set [4]. Moreover, the Tmax in data set [5] (3 mpk IV), in data set [5] (15 mpk IV) and in data set [5] (50 mpk IV) was 4.98 min in each case. The CL in data set [4] worked out at 20.2 mL/day/kg. The T1/2 in data set [4] worked out at 80 h. In data set [4], this substance displayed a Vdss of 0.087 L/kg.

By EC50 is commonly meant the concentration giving half of the maximal effect. For orientation: AUC means concentration integrated over time. What is called Vdss is the apparent volume that relates the amount in the body to the concentration in plasma or blood. One may read the Cmax as the peak of the concentration-time curve. What is called Tmax is the time at which the peak concentration occurs.
